# Substitutions are numbered along the chain they refer to.
# B1: TR01H040-E2702GsKsc/H0610-E2704sEpsc/L0209-k0 (bispecific antibody, human IgG4 S228P, kappa, N297A)
# heavy 1: QVQLVESGGGLVQPGRSLRLSCAASGFTFSNAWMHWVRQAPGKGLEWVAQIKDKSQNYATYYAESVKGRFTISRADSKNSIYLQMNSLKTEDTAVYYCRYVHYSASYGVDAWGQGTTVTVSSASTKGPSVFPLAPCSRSTSESTAALGCLVKDYFPEPVTVSWNSGALTSGVHTFPAVLQSSGLYSLSSVVTVPSSSLGTKTYTCNVDHKPSNTKVDKRVESKYGPPCPPCPAPEFRGGPKVFLFPPKPKDTLMISRTPEVTCVVVDVSQEDPEVQFNWYVDGVEVHNAKTKPREEQFASTYRVVSVLTVLHQDWLNGKEYKCKVSNKGLPSSIEKTISKAKGQPREPQVYTLPPSQKEMTKNQVSLTCLVKGFYPSDIAVEWESNGQPENNYKTTPPVLDSDGSFFLYSKLTVDKSRWQEGNVFSCSVMHEALHNRYTQKSLSLSP
# heavy 2: QVQLVQSGAEVKKPGASVKVSCKASGYTFTDYEMHWIRQPPGQGLEWIGAIDGKTPDTAYSQKFKGRVTLTADKSTSTAYMELSSLTSEDTAVYYCTRFYSYTYWGQGTLVTVSSASTKGPSVFPLAPCSRSTSESTAALGCLVKDYFPEPVTVSWNSGALTSGVHTFPAVLQSSGLYSLSSVVTVPSSSLGTQTYTCNVDHKPSNTKVDKRVESKYGPPCPPCPAPEFRGGPKVFLFPPKPKDTLMISRTPEVTCVVVDVSQEDPEVQFNWYVDGVEVHNAKTKPREEQFASTYRVVSVLTVLHQDWLNGKEYKCKVSNKGLPSSIEKTISKAKGQPREPQVYTLPPSQEEMTKNQVSLTCLVKGFYPSDIAVEWESNGQPENNYKTTPPVLDSDGSFFLYSKLTVDKSRWQEGNVFSCSVMHEALHNHYTQESLSLSP
# light: DIVMTQSPLSLPVTPGEPASISCRSSQSPVHSNRNTYIHWYQQKPGQAPRLLIYKVSNRFSGVPDRFSGSGSGTDFTLKISRVEAEDVGVYYCYQGTQVPYTFGQGTKLEIKRTVAAPSVFIFPPSDEQLKSGTASVVCLLNNFYPREAKVQWKVDNALQSGNSQESVTEQDSKDSTYSLSSTLTLSKADYEKHKVYACEVTHQGLSSPVTKSFNRGEC
# B2: TR01H084-E2702GsKsc/GCH065-E2704sEpsc/L0011-k0 (bispecific antibody, human IgG4 S228P, kappa, N297A)
# heavy 1: B1 heavy 1 with L11V, R16G, S104A, S106G, A111I
# heavy 2: B1 heavy 2 with K19T, Q43E, K54P, Q62E
# light: B1 light with S28P, P29L, I38L, Y94G
# B3: TR01H113-E2702GsKsc/GCH065-E2704sEpsc/L0011-k0 (bispecific antibody, human IgG4 S228P, kappa, N297A)
# heavy 1: B1 heavy 1 with L11V, R16G, Y62V, S104A, S106G, A111I
# heavy 2: B1 heavy 2 with K19T, Q43E, K54P, Q62E
# light: B1 light with S28P, P29L, I38L, Y94G
# B4: TR01H113-E2702sKsc/GCH065-E2704sEpsc/L0011-k0 (bispecific antibody, human IgG4 S228P, kappa, N297A)
# heavy 1: B1 heavy 1 with L11V, R16G, Y62V, S104A, S106G, A111I, R437H
# heavy 2: B1 heavy 2 with K19T, Q43E, K54P, Q62E
# light: B1 light with S28P, P29L, I38L, Y94G
# B5: TR01H113-E2702GsKsc/GCH094-E2704sEpsc/L0011-k0 (bispecific antibody, human IgG4 S228P, kappa, N297A)
# heavy 1: B1 heavy 1 with L11V, R16G, Y62V, S104A, S106G, A111I
# heavy 2: B1 heavy 2 with K19T, I37V, P40A, Q43E, I48M, K54E, Q62E
# light: B1 light with S28P, P29L, I38L, Y94G
# B6: TR01H082-E2702GsKsc/GCH065-E2704sEpsc/L0011-k0 (bispecific antibody, human IgG4 S228P, kappa, N297A)
# heavy 1: B1 heavy 1 with A75D, I81L, S104A, S106G
# heavy 2: B1 heavy 2 with K19T, Q43E, K54P, Q62E
# light: B1 light with S28P, P29L, I38L, Y94G
# B7: TR01H067-E2702GsKsc/GCH054-E2704sEpsc/L0222-k0 (bispecific antibody, human IgG4 S228P, kappa, N297A)
# heavy 1: B1 heavy 1 with A75D, I81L, S104A
# heavy 2: B1 heavy 2 with K19T, Q43E, K54E, Q62E
# light: B1 light with H39Q
# B8: TR01H067-E2702GsKsc/GCH054-E2704sEpsc/L0201-k0 (bispecific antibody, human IgG4 S228P, kappa, N297A)
# heavy 1: B1 heavy 1 with A75D, I81L, S104A
# heavy 2: B1 heavy 2 with K19T, Q43E, K54E, Q62E
# light: B1 light with S28P, I38L, Y94G
# B9: TR01H109-E2702GsKsc/GCH094-E2704sEpsc/L0011-k0 (bispecific antibody, human IgG4 S228P, kappa, N297A)
# heavy 1: B1 heavy 1 with Y62V, A75D, I81L, S104A, S106G
# heavy 2: B1 heavy 2 with K19T, I37V, P40A, Q43E, I48M, K54E, Q62E
# light: B1 light with S28P, P29L, I38L, Y94G
# B10: TR01H040-E2702GsKsc/H0610-E2704sEpsc/L0204-k0 (bispecific antibody, human IgG4 S228P, kappa, N297A)
# heavy 1: B1 heavy 1
# heavy 2: B1 heavy 2
# light: B1 light with I38L, S61R, Y94G
# B11: TR01H109-E2702GsKsc/GCH065-E2704sEpsc/L0011-k0 (bispecific antibody, human IgG4 S228P, kappa, N297A)
# heavy 1: B1 heavy 1 with Y62V, A75D, I81L, S104A, S106G
# heavy 2: B1 heavy 2 with K19T, Q43E, K54P, Q62E
# light: B1 light with S28P, P29L, I38L, Y94G
# B12: TR01H082-E2702GsKsc/GCH094-E2704sEpsc/L0201-k0 (bispecific antibody, human IgG4 S228P, kappa, N297A)
# heavy 1: B1 heavy 1 with A75D, I81L, S104A, S106G
# heavy 2: B1 heavy 2 with K19T, I37V, P40A, Q43E, I48M, K54E, Q62E
# light: B1 light with S28P, I38L, Y94G
# B13: TR01H084-E2702GsKsc/GCH094-E2704sEpsc/L0011-k0 (bispecific antibody, human IgG4 S228P, kappa, N297A)
# heavy 1: B1 heavy 1 with L11V, R16G, S104A, S106G, A111I
# heavy 2: B1 heavy 2 with K19T, I37V, P40A, Q43E, I48M, K54E, Q62E
# light: B1 light with S28P, P29L, I38L, Y94G
# B14: TR01H040-E2702GsKsc/H0610-E2704sEpsc/L0201-k0 (bispecific antibody, human IgG4 S228P, kappa, N297A)
# heavy 1: B1 heavy 1
# heavy 2: B1 heavy 2
# light: B1 light with S28P, I38L, Y94G
# B15: TR01H040-E2702GsKsc/H0610-E2704sEpsc/L0203-k0 (bispecific antibody, human IgG4 S228P, kappa, N297A)
# heavy 1: B1 heavy 1
# heavy 2: B1 heavy 2
# light: B1 light with Y94G
# B16: TR01H067-E2702GsKsc/GCH054-E2704sEpsc/L0212-k0 (bispecific antibody, human IgG4 S228P, kappa, N297A)
# heavy 1: B1 heavy 1 with A75D, I81L, S104A
# heavy 2: B1 heavy 2 with K19T, Q43E, K54E, Q62E
# light: B1 light with S25P, I38L
# B17: TR01H082-E2702GsKsc/GCH094-E2704sEpsc/L0011-k0 (bispecific antibody, human IgG4 S228P, kappa, N297A)
# heavy 1: B1 heavy 1 with A75D, I81L, S104A, S106G
# heavy 2: B1 heavy 2 with K19T, I37V, P40A, Q43E, I48M, K54E, Q62E
# light: B1 light with S28P, P29L, I38L, Y94G
# B18: TR01H040-E2702GsKsc/H0610-E2704sEpsc/L0000-k0 (bispecific antibody, human IgG4 S228P, kappa, N297A)
# heavy 1: B1 heavy 1
# heavy 2: B1 heavy 2
# light: B1 light with P29L, I38L, Y94G
# Biological target: extracellular matrix (BD Matrigel)
# Assay: ECL on Matrigel-coated plate, relative to MRAH-G1d/MRAL-k0
row,Binder,ECM binding ratio (standard = 1)
1,B1,7.4
2,B2,1.3
3,B3,2.5
4,B4,0.3
5,B5,1.6
6,B6,1.7
7,B7,0.6
8,B8,0.5
9,B9,0.4
10,B10,4.4
11,B11,0.7
12,B12,1.1
13,B13,1.2
14,B14,0.8
15,B15,0.8
16,B16,3.3
17,B17,0.7
18,B18,0.8
